Source: patent US20180371451A1 (BOARD OF TRUSTEES OF THE UNIVERSITY OF ILLINOIS, published 2018)

T1: CDC34 (UniProt P49427 1-236, limits assumed)
T1 sequence (looked up): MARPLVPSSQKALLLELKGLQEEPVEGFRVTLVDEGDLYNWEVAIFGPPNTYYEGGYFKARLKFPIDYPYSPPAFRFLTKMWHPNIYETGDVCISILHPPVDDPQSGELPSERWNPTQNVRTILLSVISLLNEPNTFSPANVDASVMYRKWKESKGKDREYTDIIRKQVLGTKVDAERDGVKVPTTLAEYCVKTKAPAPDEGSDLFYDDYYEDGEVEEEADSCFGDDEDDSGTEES


Legend:
Test in all cases: specificity test of the expressed monobodies (method not named)
[1] = biological target: human Cyclin-Dependent Kinase 2 (human, UniProt P24941 1-298)
[2] = biological target: BSA (UniProt P02769 25-607)
[3] = biological target: T1, CDC34

Chain of BSA (P02769 25-607 limits assumed): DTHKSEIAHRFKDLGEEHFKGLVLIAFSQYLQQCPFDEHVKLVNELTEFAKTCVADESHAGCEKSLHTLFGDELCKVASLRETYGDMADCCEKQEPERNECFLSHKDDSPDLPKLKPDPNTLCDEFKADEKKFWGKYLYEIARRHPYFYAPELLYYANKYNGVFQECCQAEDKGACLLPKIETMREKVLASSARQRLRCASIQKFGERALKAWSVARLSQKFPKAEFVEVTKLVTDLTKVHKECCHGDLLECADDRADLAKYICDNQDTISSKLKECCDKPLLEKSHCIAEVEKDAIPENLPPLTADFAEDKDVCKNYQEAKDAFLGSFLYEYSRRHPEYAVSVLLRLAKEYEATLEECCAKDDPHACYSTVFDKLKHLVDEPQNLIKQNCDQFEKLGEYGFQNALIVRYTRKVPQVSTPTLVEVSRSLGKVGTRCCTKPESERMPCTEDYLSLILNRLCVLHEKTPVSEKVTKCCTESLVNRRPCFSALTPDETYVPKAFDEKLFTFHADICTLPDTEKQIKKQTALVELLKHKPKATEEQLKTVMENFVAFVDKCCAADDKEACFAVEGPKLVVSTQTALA

Row | binding result [1] | binding result [2] | binding result [3] | Binder
1 | no binding | no binding | no binding | anti-MAP2K5 FN3 monobody clone G4 (designed binder, FN3 (tenth type III domain of fibronectin) monobody from the PExSR selection; It was cloned into the pET14b-SUMO E. coli expression vector (SUMO fusion, purified on His60 resin) for characterisation; also called anti-MAP2K5 clone G4) MAVSDVPRKLEVVAATPTSLLISWDQDQVYYYRIRYGETGGNSPVQEFTVPGSKSTATISGLKPGVDYTITVYAVTGTSYAYIISINYRI
2 | no binding | no binding | no binding | anti-MAP2K5 FN3 monobody clone H1 (designed binder, FN3 monobody from the PExSR selection; For the specificity test it was expressed as a SUMO fusion from pET14b-SUMO; also called Anti-MAP2K5 H1) MAVSDVPRKLEVVAATPTSLLISWDPYWFSGLYYRITYGETGGNSPVQEFTVPGSKSTATISGLKPGVDYTITVYAVTYYSWGYLVGEIISINYRI
